Results reported in patent US20240068024, “NUCLEIC ACID FRAGMENT AND USE THEREOF” (KYUSHU UNIVERSITY, NATIONAL UNIVERSITY CORPORATION, published 2024).

Legend:
T7 RNA polymerase = T7 RNA polymerase (UniProt P00573 P00573:1-883); test: in situ transcription after Tn5 insertion in mouse liver section, library band 200-400 bp; 37 C overnight; no UV needed
Tn5 transposase = Tn5 transposase (UniProt Q46731 Q46731:1-476); test: in situ transposition, 5 mM MgCl2, TAPS-DMF pH 8.5, 37 C; library band 200-400 bp; conditions: chain copies: 2 (stated, dimer)
Method: PBS was removed, 100 μL of a Tn5 solution (150 ng/well in 1×Tn5 dialysis buffer) was added thereto, and the mixture was allowed to stand at room temperature for 1 hour. The composition of the 1×Tn5 dialysis buffer was formed of 50 mM HEPES-KOH (pH 7.2), 0.1 M NaCl, 0.1 mM EDTA, 1 mM DTT, 0.1% Triton X-100, and 10% glycerol. As a result, the transposase was bound to the transposase binding sequence of the double-stranded nucleic acid fragment of each ChIL probe.
Subsequently, the 1×Tn5 dialysis buffer was removed, […] of a 1×TAPS-DMF buffer (10 mM TAPS-NaOH (pH 8.5), 5 mM MgCl₂, 10% N,N-dimethylformamide) was added thereto, and the mixture was allowed to stand at 37° C. for 1 hour. With this, the transposase bound to the double-stranded nucleic acid fragment of the ChIL probe was activated, and the double-stranded nucleic acid fragment of the ChIL probe was inserted in the vicinity of the binding region of the lysine 27 acetylation modified histone H3 on the genomic DNA.

Chain of Tn5 transposase (Q46731 whole entry, the tested form may be a part, one chain of several): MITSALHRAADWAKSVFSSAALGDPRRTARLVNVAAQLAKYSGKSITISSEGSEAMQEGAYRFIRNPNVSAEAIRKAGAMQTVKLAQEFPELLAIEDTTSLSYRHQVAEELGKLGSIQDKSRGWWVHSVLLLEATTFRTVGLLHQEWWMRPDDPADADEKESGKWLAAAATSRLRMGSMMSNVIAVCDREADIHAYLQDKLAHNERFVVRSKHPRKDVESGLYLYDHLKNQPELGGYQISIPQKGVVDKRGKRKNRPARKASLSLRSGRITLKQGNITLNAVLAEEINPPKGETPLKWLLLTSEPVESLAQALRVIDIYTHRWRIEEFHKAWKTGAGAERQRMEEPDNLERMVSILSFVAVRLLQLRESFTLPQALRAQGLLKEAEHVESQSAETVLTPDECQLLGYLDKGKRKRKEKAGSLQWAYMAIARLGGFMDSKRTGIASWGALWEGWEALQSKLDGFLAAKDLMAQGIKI
Chain of T7 RNA polymerase (P00573 whole entry, one chain of several): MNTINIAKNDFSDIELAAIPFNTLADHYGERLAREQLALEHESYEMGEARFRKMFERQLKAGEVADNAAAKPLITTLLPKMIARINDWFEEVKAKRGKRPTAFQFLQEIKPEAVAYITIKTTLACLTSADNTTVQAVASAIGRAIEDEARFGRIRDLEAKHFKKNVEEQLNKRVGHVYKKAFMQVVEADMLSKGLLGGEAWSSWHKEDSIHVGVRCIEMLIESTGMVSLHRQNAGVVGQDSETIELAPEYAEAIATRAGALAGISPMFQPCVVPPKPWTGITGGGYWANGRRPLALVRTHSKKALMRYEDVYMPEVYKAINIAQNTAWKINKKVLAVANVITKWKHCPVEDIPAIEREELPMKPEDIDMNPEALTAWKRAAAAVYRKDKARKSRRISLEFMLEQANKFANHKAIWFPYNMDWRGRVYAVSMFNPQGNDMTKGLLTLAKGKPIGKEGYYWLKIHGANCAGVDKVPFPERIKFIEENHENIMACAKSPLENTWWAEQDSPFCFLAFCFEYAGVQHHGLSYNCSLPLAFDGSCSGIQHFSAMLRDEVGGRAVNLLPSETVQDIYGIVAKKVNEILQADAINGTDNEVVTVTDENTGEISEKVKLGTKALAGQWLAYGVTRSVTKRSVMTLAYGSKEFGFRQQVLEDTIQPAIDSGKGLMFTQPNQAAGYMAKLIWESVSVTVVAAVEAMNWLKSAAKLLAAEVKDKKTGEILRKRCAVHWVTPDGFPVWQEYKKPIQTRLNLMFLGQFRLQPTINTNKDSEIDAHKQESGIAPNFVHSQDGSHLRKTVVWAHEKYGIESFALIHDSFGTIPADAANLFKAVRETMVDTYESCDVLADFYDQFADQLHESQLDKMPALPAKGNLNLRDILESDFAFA

B1: control ChIL probe (original) (dsDNA)
DNA 1: CCCATGCATTAATACGACTCACTATAGGGTAGATCGCTCGTCGGCAGCGTCAGATGTGTATAAGAGACAG
DNA 2: CTGTCTCTTATACACATCTGACGCTGCCGACGAGCGATCTACCCTATAGTGAGTCGTATTAATGCATGGG
modifications: 5'-azide on SEQ 1 (click-linked to DBCO-PEG5 anti-mouse IgG); 5'-phosphate on SEQ 2
binding result (T7 RNA polymerase): binds | binding result (Tn5 transposase): binds
